Patent publication US20090311710A1, “MUTAGENESIS METHODS USING RIBAVIRIN AND/OR RNA REPLICASES” (priority 2002, published 2009)

Tested on: TEM-1 Θ-lactamase (bla) gene expressed in bacteria
Test: Cefotaxime resistance (MIC) conferred by mutant bla clones
Type: cell-based
Settings: bla clone expressed in bacteria; listed as wild-type bla gene
Text: T7 RNA polymerase with the addition of 1000TM ribavirin 5′ triphosphate (dTRV) was used to transcribe (−) RNA from the bla gene θ-lactamase gene for antibiotic resistance) on plasmid pEGX205. The bla RNA was subsequently converted to cDNA using M-MuLV-reverse transcriptase, amplified with Pfu DNA polymerase, cut with appropriate restriction enzymes, and cloned into the plasmid pEGX212. Clones resistant to increased concentrations of cefotaxime were selected and sequenced (the minimum inhibitory concentration [MIC] for the wild-type bla gene was 0.02 ug/ml). […] When clone CefR E1 RNA was taken through a second round of T7 polymerase/dTRV mutagenesis, 3 clones containing 3 or more mutations were selected with one clone (F-E1-1) showing a 10,000-fold increase in cefotaxime resistance over the wild-type. No resistant mutants were isolated in the mutation/selection experiments that used T7 polymerase alone.

B1: Wild-type: wild-type TEM-1 β-lactamase (bla) gene for antibiotic resistance (protein, UniProt P62593 24-286, looked up)
Beta-lactamase TEM: HPETLVKVKDAEDQLGARVGYIELDLNSGKILESFRPEERFPMMSTFKVLLCGAVLSRVDAGQEQLGRRIHYSQNDLVEYSPVTEKHLTDGMTVRELCSAAITMSDNTAANLLLTTIGGPKELTAFLHNMGDHVTRLDRWEPELNEAIPNDERDTTMPAAMATTLRKLLTGELLTLASRQQLIDWMEADKVAGPLLRSALPAGWFIADKSGAGERGSRGIIAALGPDGKPSRIVVIYTTGSQATMDERNRQIAEIGASLIKHW
  cefotaxime minimum inhibitory concentration (MIC): 0.02 µg/mL
